{"source": "IntAct's records for PubMed 21946561", "parents": {"B1": {"name": "Neuronal tyrosine-phosphorylated phosphoinositide-3-kinase adapter 1 (Mus musculus), Q6PFX7 (parent)", "chain": "MNLLYRKTKLEWRQHKEEEAKRSSSKEAAPTGPVGPGAVPGPGVRVRDIASLRRSLRMGFMTMPASQEHTPHPCRSTMAPRSLSCHSVGSMDSVGGGPGGGLTEDSSTRRPPAKPRRHPSTKLSMAGPGAETPPSKKAGSQKPAPECRESSRKVPPQKPRRSPNTQLSVSFDESCAPAPSPRGANLPLQRLSRASRITGDLDAGAQEEEPVYIEMVGDVFRGGGRSGGGLAGPPLGSGGPTPPAAADSDSEDSEAIYEEMKYPLPEEAGDGRANGPPPLTAPSPPQQTHILQPHPHPHRRPASALPSRRDGTPTKTTPCEIPPPFPNLLQHRPPLLAFPQAKSASRAPGDGVSRLPVLCHSKEPAGSTPAPQVPARERETPPLPPPPPAANLLLLGPSGRARSHSTPLPPQGSGQTRGERELPNSHSMICPKAAGVPAAHPAPAALLPGPPKDKAVSYTMVYSAVKVTTHSVLPAGPPLGVGEPKTEEISVLHGMLCASSRPPVPGKSSPHSGAMGSAAGVLHHRSCLASPHSLPDPTGGSLTPLWTYPATAAGLKRPPAYDSLKAGGVLNKGCGMGAPSPMVKIQLQEQGTDGGAFASISCAHVIASAGTPEEEEEMGAAFGAGWALQRKVLYGGRKAKEVDTEEDGARAWNGSTEGPGKVEHEDRGPVPSGIPVRSQGAEGLLARIHHDRGGSRTALPVPCQTFPACHRNGDFTGGYRLGRSASTSGVRQAALHTPRPCSQPRDALSQTHPVLPLPLPPQPARERDGKLLEVIERKRCVCKEIKARHRPDRGLCKQESMPILPSWRRVPEPRKSGTPPCRRQHTVLWDTAI"}, "B2": {"name": "Neuronal tyrosine-phosphorylated phosphoinositide-3-kinase adapter 2 (Mus musculus), Q8BM65-4 (parent)", "chain": "MIPSKMMSANPEEDPLDTFFQYIEDMGMKAYDGLVIQNASDIARENDRLRNETKLAYLKEKNEKRRRQEETIKRIGGEVGRGQDASYAGKHFRMGFMTMPAPQDRLPHPCSSGFTVRSQSLHSVGGTEDDSSCGSRRQPPPKPKRDPSTKLSTSSETVNSTAASKSGRSLERAEGKFTVPASHSPPRASTSGHLFPSPGSQERNIKVSAKPRPHSDEYSKKIPPPKPKRNPNTQLSTSFDETYIKKHVPRRTSLPRDSSLSQVCSPAADPEEEEPVYIEMVGNILRDFRKEEDDQSEAVYEEMKYPIFDDLGHDSKCDFDHHSCSSQCATPTVPDLDFVKSSGPCTPKGLLCDIPPPFPNLLSHRPPLLVFPPAPVHCSPNSDESPLTPLEVTKLPVLENVSYMKQPPGACPSSLPSHGSSHAKDQTGALGPAPGASILSSSPPPPSTLYRTQSPHGYPKSHSTSPSPVSMGRSLTPLSLKRPPPYDAVHSGSLSRSSSSVPHTTPRPVSQDGAKMVNAAVNTYSAAQSGSRSRTPTSPLEELTSLFTSGRSLLRKSSSGRRSKEPAEKSTEELKVRSHSTEPLPKLDSKERGHYGSSSSREPVKAQEWDGTPGPPVVTSRMGRCSVSPTLLAGNHSSEPKVSCKLGRSASTSGVPPPSVTPLRQASDLQQSQVACMQWFHGDHTMLEMIEKKRCLCKEIKARQKTEKGLCKQDSMPILPSWKKNAGAKKYSPPPYSKQQTVFWDTAI"}}, "data": [{"variants_of": "B1", "conditions": "with p85a_human PIK3R1, P27986", "values": [{"variant": "Y212F", "effect of a mutation on the interaction": "disrupting interaction"}, {"variant": "Y257F", "effect of a mutation on the interaction": "disrupting interaction"}]}, {"variants_of": "B1", "conditions": "with p85a_human PIK3R1, P27986", "remark": "another data set of the same source", "values": [{"variant": "Y257F", "effect of a mutation on the interaction": "decreasing interaction"}]}, {"variants_of": "B2", "conditions": "with p85a_human PIK3R1, P27986", "values": [{"variant": "Y277F", "effect of a mutation on the interaction": "disrupting interaction"}, {"variant": "Y300F", "effect of a mutation on the interaction": "disrupting interaction"}]}]}
